Measured values from the nanobody polyreactivity screen of Harvey et al. (2022).

Assay: yeast display, Sf9 membrane polyspecificity reagent, FACS + sequencing; frameworks hold sequencing errors
Summary of the method: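 Polyreactivity labels are assigned by the sorting gate from which each nanobody was recovered. The gates were low and high (top ~1%), set on anti-HA fluorescence for expression and streptavidin fluorescence for reagent binding. Before sorting, galactose-induced (36–48 hours) yeast display cells were stained for 1 hour at 4 °C with 10% biotinylated, detergent-solubilized Sf9 membrane reagent.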

Row | Sequence | polyreactivity (PSR sort gate)
1 | QDQLVESGGGLVQAGGSLRLSCAASGPIFLVKTMGCYIQAPGKERELVADITWRGGDTYYADSVKGRFTISRDNAKNTDYLQMNSLKPEDTAVYYCAARGLGYGYERYRLGYWGQGTQVTVSS | high polyreactivity
2 | QDQLVESGGGLVQAGGSLRLSCAASGRIFAPNAMGWYRQAPGKERELVAAITYSGTSTYADSVKGRFTISRDNAKNTVYLQMNSLKPEDTAVYYCAAEGSGVYYHSYDYWGQGTQVTVSS | low polyreactivity
3 | QDQLVESGGGLVQAGGSLRLSCAASGRIFKSYAMGWYRQAHGKERELVAAISSSGGSTYYADSVKGRFTISRDNAKNTVYLQMNSLKPEDTAVYYCAAYGHYSWSYDYWGQGTQVTVSS | high polyreactivity
4 | QDQLVESGGGLVQAGGSLRLSCAASGRIFKYKAMGRYRQAPGKERELVAAIRRSGGSTYYADSVKGRFTISRDYAKNTVYLQMNSLKPEDTAVYFCNRLYGPGFKSVYGYDYWGQGTQVTVSS | high polyreactivity
5 | QDQLVESGGGLVQAGGSLRLSCAASGRIFPGNAMGWYIHEPGKERELVADITSGGSTNYADSVNGRFTISRDNAKNSVYLQMNSLKPEDTAVYYCAVGQIYQTSDHRLQYVYWGQGTQVTVSS | low polyreactivity
6 | QDQLVESGGGLVQAGGSLRLSCAASGRIFPWYTMGWYRQAPGKERELVAVISSGGRTHYADSVKGRFTISRDNAKNTVYLLMNSLKPEDTAVYYCAAESRYQRYDYWGQGTKVTVSS | high polyreactivity
7 | QDQLVESGGGLVQAGGSLRLSCAASGRIFRRNTQGWSRQAPGKERELVAAITSSGGSTFADSVKGRFTISRDNAKNTVYLQMNSLKPEDTAVYYCATYVAYHRGYRTYDHWGQGTQVTVSS | low polyreactivity
8 | QDQLVESGGGLVQAGGSLRLSCAASGRIFSKYAKGWYRQAPGKERELVAAITTGGGSTSYADSVKGRFTISRDNAKITVYLQMNSLKPEDTAVYYCAADRLSYGFGMYYWGQGTQVTVSS | low polyreactivity
9 | QDQLVESGGGLVQAGGSLRLSCAASGRIFYRYAMGWYRQAPGKERELVATISRSGGSTNYADSVKGRFTISRDNAKKTVYLQLNSLKPEDTAVYYCAAQYTYRFPYPGYATTHDYWGQGTQVTVSS | high polyreactivity
10 | QDQLVESGGGLVQAGGSLRLSCAASGRIIRAYAMGWYRQAPGKERELVAAISGGSNTNYADSVKGRFTISRDNAKNTVYLQMNSLKPEDTAVYYCAADAGYWESLWYPYGFYWGQGTQVTVSS | low polyreactivity
11 | QDQLVESGGGLVQAGGSLRLSCAASGRILRRNVMGWYRQAPGKESELVATITNSGGRTYYADSVKGRFTISRDNEKNTVYLLMNSLQPEDTAVYYCAKYGYGYTGYGYWGQGTQVTVSS | high polyreactivity
12 | QDQLVESGGGLVQAGGSLRLSCAASGRISTYTMGWYRQAPGKERELVATISTDASTNYADSVKGRFTISRDNAKNTVYLQMNSLRPEDTAVYYCAAVIVNQDYDYWGQGTQVTVSS | low polyreactivity
13 | QDQLVESGGGLVQAGGSLRLSCAASGRNFRYYTMGWYRQAPGKERELVAAITRRGGITNYADSVKGRFTISRDNGKNTVYLQMNSLKPEDTAVYYCAAKYVSQCYDYWGQGTQVTVSS | high polyreactivity
14 | QDQLVESGGGLVQAGGSLRLSCAASGRNFSYYAMGWYRQAPGKERELVAAIRWSGGRTYYADSVKGRFTISRDNAKNTVYLQMNSLKPEDTAVYYCAAEGAYRLAYDSWGQGTQVTVSS | high polyreactivity
15 | QDQLVESGGGLVQAGGSLRLSCAASGRTFAAYAMGWYRQAPGKERELVATIRRGGTTDYADSVKGRFTISRDNAKNTVYLQMNSLKPEDTAVYYCNARSRTYRTRRYDYWGQGTQVTVSS | high polyreactivity
16 | QDQLVESGGGLVQAGGSLRLSCAASGRTFAYNAMVWYRQAPGKERELVADITSGGSTYYADSVKGRFTISRDNPKNTVNLQMNSLKPEDTAVYDCADVRQGSFTTMDYWGQGTQVTVSS | high polyreactivity

Row | Sequence | polyreactivity (PSR sort gate)
17 | QDQLVESGGGLVQAGGSLRLSCAASGRTFFGYAMGWYRQAPGKERELVAAITTSGGSTYYADSVKGRFTISRDNAKNTVYLQMNSLKPEDTAVYYCAARAYYGYYYWGQGTQVTVSS | low polyreactivity
18 | QDQLVESGGGLVQAGGSLRLSCAASGRTFIRNAMGWYRPAPGKERELVAAISRSGGRTYYADSVKGRFTISRDNAKNTVYLQMNSLKPEDTAVYYCAAGSYQRYAFDYWGQGTQVTVSS | high polyreactivity
19 | QDQLVESGGGLVQAGGSLRLSCAASGRTFIRNSMGWNRQAPGKERELVAAISGTGGSTYYADSVKGRFTISRDYAKNTVYLQMNSLKPEDTAVYYCAADRPAPGYDFWGQVTQVTVSS | low polyreactivity
20 | QDQLVESGGGLVQAGGSLRLSCAASGRTFLRYTMGWYRQAPGTETELVADITNGGTRTYYADSVKGRFTFSRDYAKNTVYLQMNRLKPEDTAVYYCGARVRYTANYDYWGQGTQVTVSS | high polyreactivity
21 | QDQLVESGGGLVQAGGSLRLSCAASGRTFPPYGMGWSRQAPGKERELVAAISKSSGSTNYADSVKGRFTISRDNAKNTVYLQMNSLKPEDTAVYYFNVDLYRWSKLAGAYRMDYWGQGTQVTVSS | low polyreactivity
22 | QDQLVESGGGLVQAGGSLRLSCAASGRTFRRNAMGWYRPAPGKERELVAAITSSGGSTYYADSVKGRFTISRDNAKNTVYLQMNSLKPEDTAVYYCNAVGKPQSSQYYYWGQGTQVTVSS | high polyreactivity
23 | QDQLVESGGGLVQAGGSLRLSCAASGRTFRVYAMGWYRQAPGKERELVATITSSGGSTYYADSVKGRFTISRDNAKNTVYLQMNCLKPEDTAVYYCAADGGSASIHDYWGQGTQVTVSS | low polyreactivity
24 | QDQLVESGGGLVQAGGSLRLSCAASGRTFRWNAMGWYRQAPGKERELVAAITKSGGSTYYADSVKGRFTISRDNAKNTVYLQMNSLKPEDTAVYYCAAPRYSTFTYDYWGQGTQVTVSS | low polyreactivity
25 | QDQLVESGGGLVQAGGSLRLSCAASGRTFSYNTMGWYRQAPGKERELVAAITRSGGSTYYADSVKGRFTISRDNAKNTVYLQINSLKPEDTAVYYCNARSWYWGQGTQVTVSS | high polyreactivity
26 | QDQLVESGGGLVQAGGSLRLSCAASGRTFTRNAMGWYRQAPGKERELVAAISISGGRPYYADSVKGRFTISRDNAKNTVYLQMNSLKPEDTAVYYWAKVTTSKYDYDYWGQGTQVTVSS | high polyreactivity
27 | QDQLVESGGGLVQAGGSLRLSCAASGRTFWVYAMGWYRQAPGKERELVAAIRRGGITNYADSVKGRFTISRDNAKNTVYLQMNSLKPEDTAVYYCATDNYGYLTRYYYWGQGTQVTVSS | low polyreactivity
28 | QDQLVESGGGLVQAGGSLRLSCAASGRTFYDNVMGWYRQAPGKERELVAAISSGASTNYADSVKGRFTISRDNAKNSVYFQMNSLKPEDSAVYYCATNGGGGWAYEYWGQGTQVTVSS | low polyreactivity
29 | QDQLVESGGGLVQAGGSLRLSCAASGRTFYQYAMGWYRQAPGKERELVAAITFRGGSTNYADSVKGRFTISRDNAKNTVYLQMNSLKPEDTAVYYCAATVYGTVYKGRSQYEYGYWGQGTQVTVSS | high polyreactivity
30 | QDQLVESGGGLVQAGGSLRLSCAASGSIFADYAMGWYRQAPGKERELVAVISRRGGTTYYADSVKGRFTISRDNAKNTVYLQMNSLKPEDTAVYYCAARRSFNEYDSWGHGTQVTVSS | high polyreactivity
31 | QDQLVESGGGLVQAGGSLRLSCAASGSIFDDYAMGWYRQAPRKERELVASISWSGGRTYYADSVKGRFTISRDNAKNTVYLQMNSLKPEDTAVYYCAAALWTGYSWGQGTQVTVSS | low polyreactivity
32 | QDQLVESGGGLVQAGGSLRLSCAASGSIFGVNDMGWYRQGAGKERELVAGINQGGGSTYYADSVKGRFTISRDNAKNSVYLQMNSLKPEETAVYYCAAVRYVLRSPARYGYWGQGTQVTVSS | low polyreactivity
